# Laboratory results published in US10501502B2, “Allophycocyanin alpha-subunit evolved labeling proteins (smURFPs)” (The Regents of the University of California, priority 2016, dated 2019).
# Experiments:
# [1] = tested on: Escherichia coli; test: Fluorescence of FPs expressed in Escherichia coli; assay type: cell-based
# Method: TeAPCα gene (codons optimized for Escherichia coli) was made by GenScript. Mutations were placed by random mutagenesis using GeneMorphII Random Mutagenesis Kit (Agilent Technologies). Screens for mutants that fluoresce with PCB or BV were performed by subcloning into a pBAD vector (Life Technologies) that expressed cyanobacteria Synechocystis HO-1 and Synechocystis PcyA genes for PCB production and Synechocystis HO-1 only for BV production, as previously described^34. Libraries were expressed in TOP 10 Electrocompetent Escherichia coli cells (Life Technologies) with addition of 0.2% arabinose to LB agar plates (FPs were constitutively expressed in Escherichia coli). Fluorescence was imaged on plates using a BioSpectrum AC Imaging System (UVP) with EX/EM=628(40)/690(50) nm for FPs+PCB, EX/EM=685(40)/710LP nm for rounds 4 and 5 FPs+BV, and EX/EM=650(13)/690(50) nm for Cy5-like FPs+BV (rounds 6-12). At round 6, 5-10 of the brightest colonies on each plate were combined in LB+0.2% arabinose, grown ˜18 h, mixture of plasmid DNA was purified, and TOP10 cells were transformed and plated on LB agar plates+0.2% arabinose. Fluorescence was screened on plates (as described above), 10-20 of the brightest colonies were screened in liquid culture fluorescence (FIG. 7a-e), plasmid DNA was purified, and DNA was sequenced. The plasmid DNA of 2-3 of the brightest FPs was chosen for mutagenesis for the subsequent round. When choosing DNA for subsequent mutagenesis rounds, genes with increased and/or novel silent DNA mutations were chosen over other DNA that had the same DNA and/or protein sequence of the previous round. Site-specific mutagenesis was performed using QuikChange Lightning Mutagenesis Kit (Agilent Technologies) to create smURFP (C4S mutation) and smURFP C52S.
# [2] = tested on: primary cortical neurons; test: Rat primary neuronal cultures transduced with smURFP T2A mCherry lentivirus; assay type: cell-based; settings: 15 d after transduction
# Source text: smURFP-T2A-mCherry (GenBank AY678264), smURFP-T2A-mCardinal, smURFP, and mCardinal (Addgene 51311) were subcloned in a generation-two lentiviral vector with the CMV promoter for constitutive expression. Viruses were produced as described^45. The procedures for extracting cultured neurons from rat pups were approved by the UCSD Institutional Animal Care and Use Committee (IACUC, #503172R) and are consistent with the recommendations of the American Veterinary Medical Association. Primary cortical neurons were dissociated by papain from postnatal day 2 Sprague Dawley rats (n=6) of either sex and combined, plated on poly-D-lysine-coated glass-bottom culture dishes (MatTek, #P35G-0-14-C), and cultured in Neurobasal A medium+1×B27 supplement (Life Technologies)+2 mM GlutaMAX (Life Technologies)+1×penicillin-streptomycin (Fisher Scientific). Prior to fluorescence imaging, 25 μM BV was added for 10 min, removed, and washed with 2×2 ml Hank's Balanced Salt Solution (HBSS, Life Technologies)+2 g/L glucose+20 mM HEPES (pH 7.4), referred to as imaging solution. Fluorescence imaging was performed in vitro 15 d after infection using a Zeiss Axiovert 200M inverted microscope controlled by SlideBook software. FPs were imaged as follows: smURFP and TDsmURFP, EX/EM=628(40)/680(30) nm; and mCherry, EX/EM=580(20)/653(95) nm.
# [3] = In vitro photobleaching of bubbles of purified FP or Cy5 in mineral oil; assay type: physicochemical
# Method: EX and EM spectra were obtained using SPEX Fluorolog fluorometer (Horiba). Absorbance spectra were obtained using UV-VIS Spectrophotometer Cary Eclipse (Varian) or UV-2700 (Shimadzu). Quantum yield was determined relative to Cy5. Incorporation rates of BV on 0.5 μM smURFP was performed by addition of smURFP to PBS alone or with 20% fetal bovine serum (FBS) and mixed by pipetting in a quartz cuvette. Chromophore was added last, mixed by pipetting, and fluorescence was recorded using SPEX Fluorolog fluorometer (Horiba). Photobleaching was characterized on bubbles of purified FP or Cy5 within mineral oil using light from a 150 W xenon arc lamp with 100% light through EX/EM=628(40)/680(30) nm for smURFP, TDsmURFP, and Cy5 or EX/EM=665 (45)/725 (50) nm for IFP 1.4 focused with a 40×, 1.2 numerical aperture C-Apochromat oil-immersion lens on a Zeiss Axiovert 200M inverted microscope. Photobleaching times were normalized to reflect an initial illumination intensity producing 1,000 photons per fluorescent molecule per second as previously described^37.
molecule,measurement,setting,value
"smURFP: small ultra-red fluorescent protein, SEQ ID NO: 13, homodimer, covalently attaches biliverdin (protein, homodimer; biliverdin chromophore; smRUFP Variant Polypeptide) MKTSEQRVNIATLLTENKKKIVDKASQDLWRRHPDLIAPGGIAFSQRDRALCLRDYGWFLHLITFCLLAGDKGPIESIGLISIREMYNSLGVPVPAMMESIRCLKEASLSLLDEEDANETAPYFDYIIKAMS",fluorescence when expressed in E. coli (qualitative),[1],greater than that of infrared FPs IFP1.4 and iRFP713
same,fold brighter than R1+PCB,[1]; expressed in E. coli,~650 fold
same,lysosomal aggregation in neuronal culture,[2],not seen
same,in vitro photobleaching t50%,"[3]; excitation intensity yielding 1,000 photons per s",300 s
same,In vitro photostability t50%,"[3]; time to bleach 50% from an initial emission rate of 1,000 photons per s",300 s
